Tested on: HSV-1 strains F, G, and MP
Experiment: Infection of nectin-1 CHO Igβ cells by clinical HSV-1 strains, virus pre-incubated (Example 4)
Assay type: cell-based, herpes simplex virus type-1
Settings: MP at 25 pfu/cell pre-incubated 90 min
Protocol: In this experiment different clinical strains of HSV-1 (F, G, and MP strains of HSV-1 [37] at 25 pfu/cell) were either pre-incubated with 1×PBS (control) or with CN at the concentrations indicated in FIG. 8, panel A for 90 min at room temperature. After 90 min of incubation the two pools of viruses were incubated with Nectin-1 receptor expressing CHO Igβ cells that express β-galactosidase upon viral entry as described. The viral infection blocking was measured by ONPG assay (FIG. 8, panel A). Similar experiment was conducted using Lac Z encoded HSV-2 (333 gJ-reporter virus). HSV-2 is a genital herpes virus. […] Each value shown is the mean of three or more determinations (±SD).

B1: contortrostatin (protein)
chain: DAPANPCCDAATCKLTTGSQCADGLCCDQCKFMKEGTVCRRARGDDLDDYCNGISAGCPRNPFHA
- HSV-1 infection blocking activity across viral strains (ONPG assay): not viral-strain specific

From US20130177528A1, “COMPOSITIONS AND METHODS FOR INHIBITING VIRAL INFECTION” (WESTERN UNIVERSITY OF HEALTH SCIENCES, priority 2011, published 2013)
